The data set is described as follows: label from the status in PepcDB records.
For “MSENENSQEKNELLDALNSVEEVNVGDVVKGEVLAIDDDKQVIVGIQGTGVEGVVPLKELSTQRVDDVNEAAKVGDVLDLVVISRIGSDKENGSYLLSHRRLEARKVWDDVEKEYEAGHTIKAPVTQVVKGGLVVDAGVRGFIPASMIDDHYVEDLNAYKGQELELKIIEIEPSENRLILSHRAVVEKQREAQREEALKTLQAGDVVEGKVARLTNFGAFVDLGGIDGLVHVSEISYERVEKPADVLKVGQEVTVKILSVDADRERVSLSIKATLPEPWDGIEEKAPQGAVLDGKVKRLTSFGAFVEVFPGVEGLVHISQISHQHIATPNDVLKVGQEIKVKVLDVRPDEKRLALSIKALEEKPQTADDDNESQPERRSNNNRRRNNNRDNRTASERSTANAPEESTGFTLGDLIGDELKNAESNNDENLEHHHHHH”, the protein production result is recorded as “failed”.
To “MSENEPAQMIEGRYRIVRNIAEGGMATVYEAIDERLGRTVAIKVMHTQLAKGPHREQFVERFRREANSAASIANPHIVQVYDTGEFNGLDFLVMEYVHGVNLRHEMNAQGTFSVRETLRVVAETLDGLASAHRAGVVHRDIKPENILINDRGHVQITDFGLAKAASQATLSSTGMLLGTAAYLAPEMIENNQATAQGDLYSVGIMAWEMLTGKVPFDSDNPVTLVFKHVHEDVPSVATVCQGIDPSVAAFIAHLTARQVDVRPTDGAAAAEELSQLAAKLPLEAWQYRLHAEPIGGDHTDATAAALVGNIAEQAPLTGVPAGAATFEPSVPAFLADDVASNTADTGGAADVNPPAPPVAPTTALDSSTPADASAPHKTQIMAQSGSETQVLPQAGDAFTRAPALSDEPDVASNGTGPKKQRSKNRFIVLVIVLVLAAIGGTAGWWWFAGPGSYWSVPKPDDVTCDANAGTECSLTGADWATYESTLKAFGIPYKTHEEYSDDVAEGKIISSSVNKTKAVVNSHISKRANQELTVVVSKGVRMATIPKDILDANSANGKNPLNALKKAGFDNVKHDESKDEYSMDTPQGVALTISPDPGTTAKHNDEVTITLSKGPMPVTMPDIVGKTQYEMQAALGELKLTANVTEQYDDKVEAGQVISASQEAGAQLKWGDSVDVVISKGPEMATIPSGLVGKQESAVTKTLESLGFKVKADKVLGGLFGTVRTVKSGDTDLSNGGKTRLRDANGNPTVITLTIV” belongs “failed”.
Consider “MSENTKVEAKRVFIGAGCNRVVNNVSWGASGLVSFGAQNAVAVFCPKTAQILTTLPGHKASVNCTHWLPTSKFAFKAKKLDRQYLLSGDSDGIIILWELSTLNNDQQWRHVLQLPLSHKKGVTCITAYMVSETDAMFASASSDGVVNVWDVSFPSQPSEECKVVCLDSICVDTKAIVTLSLAELPQNPGRFALALGGLDNKIKLYSGERTGKFTSVCELKGHTDWIRSLDFSLPLHTTEEIPNSIMLVSSSQDKVIRIWKLVLVGDVGSWRREITLASYIEGPVFVSGTFTYQISVESVLIGHEDWVYSVEWQPPVIDFIDGRLVNHQPLSILSASMDKTMMIWRPEKKTGVWVNVVCVGELSHCALGFYGGHWSPNSLSILAHGYGGAFHLWRNVSSSKESENWQMQKVPSGHFAAVTDVTWARTGEYLLSVSQDQTTRVFSAWKNDEGNEAEDEHWHELARPQVHGHDINCVAMVQGKGNHRFVSGAEEKVVRVFEAPLSFLKTLNHTCAGGEGSFPEDLQADVQVLGANMSALGLSQKPIYLHSSSEPLERNGGGEGLDTFETVPEAAPAELKEPPIEDQLAFHTLWPESHKLYGHGNELFSLCSDHKGNLVASSCKAQSASMAEIWLWEVGTWKAVGRLQSHSLTVTHLEFSYDDTLLLSVSRDRHFSVFSIQRTDNGEVSHKLMAKVEAHKRIIWACSWNPFGHQFATSSRDKTVKIWSVENDARIKQILVLPPFGSSVTAVAWTGLDRNEKSGCVAVGMESGLIELSNVKIIETEEGTTATAALALRLEPFMCHVSAVNRLAWRPTEKCESNQSLRWLTSCGDDNCVRVFNFKF”, for which the protein production result is “failed”.
Regarding “MSEPHRDTKIGQVLMNRYQLTELIGKGSMGRVYRAEDILLGGVPVAVKFLSQTLLNDRMKTRFAQEARAGALLGQKSMHVVRVLDYGMNNEEIPFYVMEFLEGENLSDLLLEEPLPLSRFLRIARHMCLGLQVAHEGIIIEGQKCPIIHRDIKPSNVLVIQDGTMGELAKLLDFGIAKFLGDVPEKGQTSSFMGTLAYCSPEQIEGRELDHRSDIYSLGITMYELLTGKMPIQAESHSIGSWFKAHHFQKPIPFNVASPGLHLPPALEELIMACMAKSPSDRPQNVAEIIKVLTALEDQFGSTRVTQPGVEVGAKVSQPLERQSQPPVALATVEEVCWQSVWPADKPVAEIVFPMPLYAQRESAASLWVMLPRSEIDRRMLNLRYNQFLFTTSPHPMILWITAIYDPQQGPRWLPCYLDMKLPRNQELCLLLSETGYYPLLFFSLEDPQHCINVRTFTIATFQRQLLRDWLQTSKNLPSSAPAVVSRNLLKAEFENYKPQILAKLENVKMATVID”, the protein production entry is reported as “failed”.
Regarding “MSEPMSERERWQLELDKLQRGLQGDPFAFLGPQRDPGGEGGVLRAYLPGAQRVELLDEDGATLAELEQSDPGSGLFQRHLERLPPRYRLRVHWPDGVQESEDPYAFGPLLGELDLYLFAEGNHRQLASCLGAQLTRHEGVEGVRFAVWAPNAVRVSVVGDFNGWDGRRHPMRRRYPSGVWELFVPRLGEGELYKYELQGHDGLLPLKADPLALACETPPGTASKTCAALRHEWRDQDWLARRAERQGYAAP”, the protein production result was “failed”.
Turning to “MSEPVFPTPEAAEDAFYAAFEARSLDDMMAVWARDDHVACIHPLAAPLNGRAAVAAGWRSMFGAAGRFRLQVKAVHEIRQADHVIRIVDEFLTIGDETAPRPAILATNVYRREADGWRMVLHHASPLQVGAKAGADTPPVVFH”, the protein production result is “not failed”.
“MSEPYGKAFSLMRAEAEPAWRAYTHHAFVEGLKAGTLPREAFLHYLQQDYVFLIHFSRAWALAVVKSETHSEMLAAVGTVNALVAEEMQLHIGICEASGISQEALFATRERAENLAYTRFVLEAGYSGDLLDLLAALAPCVMGYGEIGKRLTAEATSTLYGDWIDTYGGDDYQAACKAVGTLLDDALERRLGAEFTSSPRWSRLCQTFHTATELEVGFWQMGLTP”: the protein production result is listed as “not failed”.
To “MSEQNEKEGAVGSLERGLLIIRVLLDAPGPMSLAELAQELALGPSTVHRLLGTLTKLGQVVREPRGKRYLAAPQVLASLSFQHPITLVRLACRSAIEELRERTGETSAFVLFIGYERLVQDFVIGQRLLSPNYQTWLRSPMHGSASGKLLLSTVPENNWVDLIGHEPYQAHTPSTITTYEEMVAEIQAIRRQHYCVSKNEGYEGVSAFGYPVVVLGKTVGCITLTVESASLNESREAFLIQEMLRCVKSIQAVSGSLKLLHDWLF” belongs “failed”; to “MSERPVQSKLNNALNILKQGDLRGSYAELERLLRDDLENAEIDYTLKGVRFWEDKLEKAKKASTPLERAEMMISQWKPFLAYIHRQGEEKESIIYSLKCAVFTIALEFYADLFNEESELPDAEPYRKIGLCYKVLGNYERALDFLRYAAEIDKNSGSVLADLADCYALYGEIKFAKAFFREAFFIDPEGIELQFLESEIICRLINRVYNLGYRVEDIADWLPIYGVIDGVFNVKRELRAFEVGQLKQNIFLMEGEVQNASQEQKHKLVPRLINHYFWLIDHYVSVNESKSKIDDLLLRIKVLDQNIYNCYMR”, “failed”; to “MSESLDFSPYLERWALQPDGEPFATHSSRLLPVRHRGAAAMLKISSAEEERFGHVLLNWWDGQGAARVLAYDHQALLMERATGGRSLLEMVRRGDDDEATRILCQAIERIHAPRPGPLPELTPLERWFDSLYAAERRYGGLYVDCANAARYLLETAREQRPLHGDIHHGNVLDFGERGWQVIDPKRLYGERGYDYANLFTNPDAKTAQAPGRFERQLEIVIAASGLQRRRLLQWILAWTGLSAAWFDEDGSREETEAELAIARLALANLARTPAQ”, “failed”.
Turning to “MSESPTAGRASLAPLREFITGLSALLDEQPGEARILREGGALLARLVARDDWLPDAFAQPHPEYYQQMLLHCDSAERFSIVSFVWGPGQRTPIHDHTVWGLIGMLRGAEYSQPFVLDGSGRPVLHGEPTRLEPGHVEAVSPTVGDIHRVHNAYDDRVSISIHVYGANIGGVRRSVYTEAGERKPFISGYSNPYLPNPWDRSKDSAAS”, the protein production entry was “not failed”.
As to “MSETERTLVIIKPDAVVRGLIGEIISRFEKKGLKIVGMKMIWIDRELAEKHYEEHREKPFFKALIDYITKTPVVVMVLEGRYAVEVVRKMAGATDPKDAAPGTIRGDFGLEVSDAICNVIHASDSKESAEREISLFFKPEELFEYPRAADWFYKKGI”, the protein production entry is listed as “not failed”.
Consider “MSETPERGLGSRAGVVLVDRYRLDERIGVGGMGEVWRATDILLSRPVAVKLLHLAQVSDPVSQQRFRTEAQITAALSHPNIAQVYDYGEQDGFSFLVMELITGESLSAIIKRNPGLDPDITLDVVDQAAQALSAAHANGVIHRDIKPGNLLVTEDGTVKLTDFGIARGNESVTLTQTGMVMGTAQYISPEQVSGKPASPLSDIYALGIVAYECLAGHPPFTADTPLALALAHSREPPPPLPDSVPPAVRELVECMLAKDPQERPSSAAEVSQWAQRLRAALNGGDATEALGLVSATAATAVVPAQPGPPTGDSTPVDGPHSGAQAQTWPPPQGKDSDRVAERSAAPNSRLNLPVVFALIATVGAVAVGIFLVGLLGKEPGTNGTPTSHRSVVPTLSRSPDTTENITTDSQTPVPDNPGGQLPPLNDEPEESYSPAPHPEPTTPPQSEYPSPPGDGADSTPDPGEEPGGPSDEDDADGGGAAPGGPTGGTGEESRGSTPP”, for which the protein production result was “failed”.
On to “MSEVILDIMNNELVSSLILRELIQYRRRFTHSTKSVSEEESQVTQVQLPRIRTFVDEGRRVELILPAFPVKSPSPYKVLGRMPDMAERLSLIFLNSLCQRIQLYYPPGAHIRICSDGHVFGDLIGTSDETINTYQDEIENLLHELGAVHLSVFNLKDVENMAALTADYGHLRQRLVEDYAESAEEIKEQLMQSEEGLQLYRSITRFLYEDSLRPDYTGSNAALQKDAKKRACGVIQRSWAWGNLLAENFPDAIRLSIHPQPADSLKLGIHMMPTKDDWLTPWHGVAANVNGQFVLMKNTDAQQLAGEVVEIRGTPSHYLVKQSDVA”, for which the protein production result is “failed”.
For “MSEVKKTKVHLISGFLGTGKTTALKSLMAQKDPNEKWVIIVNEFGEIGIDGAVLSDNGIPVAEIAGGCLCCTAGPQMGVTVQKMLRDAKPDRLMIEASGLAHAASVIDELKAKPLDSLLEIGAVFTVVDPRQFINPDYAQQALYKDQIGICDVLAASKTDLCTPEQLAEFHDKAAKLFPPKAKVVEVQNAQLDIQWLDIPVVEKSRYRLKALPDNTMGFQSQGFTFPAGRDFNGEKLTNFFNDLPKMTEGLVRAKGVFQVLGTWVWLNWVDGQWGANQVSWRRDSRFELIAKSFDADLIEQKLKDALELEHHHHHH”, the protein production result was “not failed”.
To “MSEVQITFRKAREQDLMTYFNWANDEVTRKNSFGTNKIDLKTHTEWFLKKISSPDSLLLVFEDAAKIPVGQVRIECGEEEAVIGISIDSAFRGKSLSAFMIDSACTEYFRNFTKPIAAHIKATNTASVKAFEKAGFILKEEYTVDQELRFILLRQHV” belongs “failed”; to “MSFFKLKENNTSFKTEVIAGLTTFLAMVYIIPVNSSIVGNTGMPIEALITATALITIVASAFNAFFANTPVAMSVGMGLNAYFTFAVCLGQNIAWQSALGAVFISSIIFLILSFTHFRLWVIRNIPKDLRLAICAGIGCFIAFLGLSQMGVIMHNKDTLVSIGNFKSPHVLFGIFTLALIIFFWAIKLLGAFILGVLASSIIAWIFHLDNASFPVQIFSWPNFSMENGLGAIFLQLDIKSALNITMIPIILTFFITQLFDSIGTITGVGERGKIFDDPKNGEKKLSKTLMADATGSALGAMTGTSTVTAFVESTTGVESGGRTGLTALVVAICFAFTLFLLPLFKAIPANAIYPVLVMVGILMFMEVKNIDFKDSAIAVASFFTIIMMPFTYSITTGFAFGFLSYLLVRIFKREWDKINLGIIVLSLLSLGNFLLMALQ”, “failed”.
